These results are taken from patent publication US20250313627A1 (FUSE BIOTHERAPEUTICS, published 2025).

The target in assay [1] is T1, recombinant His tagged human ROR1 (human, UniProt Q01973 30-403, limits assumed).
T1 construct: Analyte in the BLI assay; also called Human ROR1-His; recombinant ROR1
In words: BLI (Octet), FUSE protein loaded on the biosensor, His tagged ROR1 in solution; column 'kdis(1/s)'. Here is the method: (§1) As shown in FIGS. 5A-5D, the binding affinities (KD) of TCEs for ROR1 were assessed. We examined the magnitude by which several TCEs and mutants thereof bind to recombinant ROR1. Kinetic binding graphs were generated via Bio-Layer Interferometry (BLI) using an Octet system. For each TCE, the biosensor tips were coated with FUSE proteins at 15 μg/ml and probed with either recombinant His tagged ROR1 at concentrations ranging from 100 pM to 10 μM. […] The binding affinity (KD), on rate (k-on) and off rate (k-dis), are summarized for ROR1 in FIG. 5D.
(§2) Antibodies were prepared in 1×PBS with 0.02% Tween-20 with the final concentration of 15 ug/ml. Human ROR1-His or CD3e-His protein were also prepared, and serial diluted (4-fold dilution ranging from 400 nM to 0.098 nM) in 1×PBS with 0.02% Tween-20. The biosensors were pre-moistened in 200 uL of 1×PBS with 0.02% Tween-20 for 10 minutes. Meanwhile, Octet BLI system (ForteBio) was prewarmed for 30 minutes and the flow rate was set to 1000 rpm. The biosensors (Anti-hIgG Fc Capture biosensor) were soaked in 250 uL of 1×PBS with 0.02% Tween-20 for 60 seconds at 30° C. to get an initial baseline reading. After the 60-second baseline reading, the biosensors were exposed to testing antibody for 300 seconds at 30° C. for the association between antibody and the biosensors (coupling antibody with biosensor). The biosensors with antibody were then exposed to human ROR1 or CD3e in 250 uL of 1×PBS with 0.02% Tween-20 at 30° C. for 300 seconds for the association reaction between antibody and human ROR1 or CD3e (association curve). After 300-second association reaction between antibody and antigen, the biosensors with antibody and antigen were then exposed to 250 uL of 1×PBS with 0.02% Tween-20 at 30° C. for 300 seconds for the dissociation reaction between antibody and […]. The binding affinity was calculated by the built-in data fitting algorithm.

The target of assay [2] is T2, human ROR1 (Receptor Tyrosine Kinase-Like Orphan Receptor 1) on the cell surface (human, UniProt Q01973 30-937).
T2 construct: whole, on cells; engineered into B16-F10 (high density) and LS174T (low density) cells; also called B16-F10-ROR1-H; LS174T-ROR1-L
In words: flow cytometry on MDA-MB-231 ROR1 low cells (about 17,000 ROR1 per cell), secondary antibody to the IgG1 Fc. How it is done:
(§3) Binding of 2A11 (black line), 5A1 (dark grey line) and VHH8 (medium grey line) were tested in TCE format 12A. The commercial ROR1 specific Ab reported to bind the ROR1-Ig domain 2A2 (light grey line), served as the positive control and anti-HEL (dotted black line) served as the negative control. To better visualize binding of each test article to the three cells lines, we plotted MFI on the y-axis for each test article for HEK-293 cells (negative control; FIG. 4I), HEK-293 cells transfected with full length human ROR1 (FIG. 4J) and HEK-293 cells transfected with the ROR1 Ig domain linked to the cell surface via the GPI linker from CD59 (FIG. 4K).
(§4) Adherent target cells were collected by brief TrypLE treatment while suspension cells were directly collected. Collected cells were washed once with PBS by centrifugation at 500×g for 5 minutes at room temperature and added to V-bottom 96-well plate (200,000-300,000 cells per well). To prepared Live/Dead fixable red, one vial of powder was dissolved into 50 uL of DMSO to make stock solution and then diluted 1 uL of stock Live/Dead fixable red in 1 mL of PBS to prepare the working solution. 100 uL of Live/Dead fixable red working buffer was then added to the cell in the V-bottom 96-well plate (200,000-300,000 cells per well) and incubated for 15 minutes at room temperature. After the 15-minute incubation, the cells were washed twice with PBS by centrifugation at 500 g for 5 minutes at room temperature. The cells were then cultured with antibodies at different concentrations in 100 uL of Biolegend staining buffer at 4° C. for 45 minutes. After the 45-minute incubation with primary antibody, the cells were washed with PBS by centrifugation at 500 g for 5 minutes at room temperature. The cells were then cultured with PE-Cy7-conjugated mouse-anti-human IgG secondary antibody in Biolegend staining buffer at 4° C. for 45 minutes. […] The samples were then analyzed on Cytek flow cytometer.

Assay [3] has as its target T2, human ROR1 (Receptor Tyrosine …). In words: flow cytometry on MDA-MB-231 ROR1 high cells (about 500,000 ROR1 per cell), secondary antibody to the IgG1 Fc. How it is done:
as §3, §4

Assay [4] shares this target. In words: flow cytometry on MDA-MB-231 ROR1 normal cells (about 35,000 ROR1 per cell), secondary antibody to the IgG1 Fc. How it is done:
as §3, §4

For assay [5], the target named is T1, recombinant His tagged human ROR1. In words: BLI (Octet), FUSE protein loaded on the biosensor, His tagged ROR1 in solution. Here is the method: as §1, §2
Assay [6] has as its target T2, human ROR1 (Receptor Tyrosine …). The experiment in a line: flow cytometry on MDA-MB-231 ROR1 super high cells (about 2,000,000 ROR1 per cell), secondary antibody to the IgG1 Fc. Here is the method: as §3, §4
Assay [7] shares this target. In words: flow cytometry, B16-F10 cells expressing human ROR1 (high density). Here is the method:
As shown in the tables below, mouse B16-F10 melanoma (Tables 9A-9F) or LS174T human colorectal adenocarcinoma (Tables 9G-9H) cells genetically engineered to express human ROR1 at high and low densities, respectively, were stained for flow cytometric analysis with 100 nM of humanized variants of the ROR1 specific VHHs, 5A1 or 2A11 in either a VHH-Fc format or the Ac13 format shown in FIG. 1. Cells were analyzed on a flow cytometer after the primary test article was fluorescently tagged with a goat anti human IgG-Fc specific PE secondary antibody. The positive control used was PE conjugated anti-human ROR1 clone 2A2. Negative controls included a PE labeled mouse IgG Ab, the secondary antibody only, the combination of a Hen Egg Lysozyme (HEL) specific antibody plus goat anti human IgG-Fc specific PE and Fluorescence Minus One (FMO). Other controls included the non-humanized version of 5A1-Fc (FUSE179), 2A11-Fc (FUSE112) and 5A1-Ac13 (FUSE488). Humanized variants were generated using computational design (FUSE489, FUSE497-498, FUSE563, FUSE569-570, and BI-HU9-VHH11-33), a yeast display library in which mutations were inserted into the Vernier zone residues of human framework indicated in GenBank accession number M99660 (FUSE524-525, FUSE589, FUSE597-598, FUSE537, FUSE661-662, BI-HU9-HK and BI-HU9-HK-1), and a second yeast display library in which mutations were inserted into the Vernier zone residues of human framework indicated in GenBank accession number AWH66715 and amino acid position 103 within CDR3 (FUSE559, FUSE590-596, BI-HU9-VH9-1, FUSE654-655 and FUSE661-662. Affinity matured variants of FUSE559 were also generated using computational design (F22158101-21; Table 9H).

T1 sequence (Q01973 30-403 limits assumed): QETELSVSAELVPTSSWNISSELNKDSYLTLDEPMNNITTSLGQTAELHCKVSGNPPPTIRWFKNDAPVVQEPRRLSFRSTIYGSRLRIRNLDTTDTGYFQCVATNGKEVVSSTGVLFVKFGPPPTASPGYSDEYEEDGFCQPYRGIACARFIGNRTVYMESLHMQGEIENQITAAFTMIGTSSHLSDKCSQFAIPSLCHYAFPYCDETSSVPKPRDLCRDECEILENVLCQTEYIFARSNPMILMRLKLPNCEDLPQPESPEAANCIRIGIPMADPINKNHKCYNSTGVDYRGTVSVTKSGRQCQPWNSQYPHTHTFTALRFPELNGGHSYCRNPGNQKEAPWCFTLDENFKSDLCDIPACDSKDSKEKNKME
T2 sequence (Q01973 30-937): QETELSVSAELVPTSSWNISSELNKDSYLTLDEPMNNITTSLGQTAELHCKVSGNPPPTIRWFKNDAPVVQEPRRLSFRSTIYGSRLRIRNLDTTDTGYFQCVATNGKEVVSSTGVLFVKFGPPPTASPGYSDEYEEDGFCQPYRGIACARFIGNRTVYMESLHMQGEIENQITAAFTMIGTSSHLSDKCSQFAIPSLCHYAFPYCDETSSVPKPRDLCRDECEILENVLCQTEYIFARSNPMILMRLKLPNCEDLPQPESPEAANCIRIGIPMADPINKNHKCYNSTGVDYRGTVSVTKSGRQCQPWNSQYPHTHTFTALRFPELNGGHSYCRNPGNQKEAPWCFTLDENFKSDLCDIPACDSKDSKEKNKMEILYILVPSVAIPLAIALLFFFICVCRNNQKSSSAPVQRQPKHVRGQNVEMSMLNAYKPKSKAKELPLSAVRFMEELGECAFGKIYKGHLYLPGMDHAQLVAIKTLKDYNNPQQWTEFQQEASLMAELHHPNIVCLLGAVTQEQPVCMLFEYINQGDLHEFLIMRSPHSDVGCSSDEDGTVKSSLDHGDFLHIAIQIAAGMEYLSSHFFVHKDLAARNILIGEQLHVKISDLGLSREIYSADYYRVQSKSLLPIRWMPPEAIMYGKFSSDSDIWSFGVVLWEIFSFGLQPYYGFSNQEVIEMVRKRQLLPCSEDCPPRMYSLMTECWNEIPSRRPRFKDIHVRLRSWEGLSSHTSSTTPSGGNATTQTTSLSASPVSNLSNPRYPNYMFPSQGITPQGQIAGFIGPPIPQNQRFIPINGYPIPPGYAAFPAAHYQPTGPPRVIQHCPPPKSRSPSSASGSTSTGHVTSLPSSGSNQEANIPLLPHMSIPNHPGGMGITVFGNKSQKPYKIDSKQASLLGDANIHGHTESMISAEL

B1: FUSE-211 (bispecific antibody, human IgG1, lambda, L234A L235A)
chain: QVQLQESGGGSVPAGGSLRLSCAASGSTYSANCMGWFRQAPGKEREEVASMSIRSGRTYYSDSVKGRFTISQDGSKNTLYLQLNSLKAEDTALYYCAAAYGGSRCVYNYRGQGTQVTVSSGGGGSGGGGSGGGGSQVQLQESGGGSVPAGGSLRLSCAASGSTYSANCMGWFRQAPGKEREEVASMSIRSGRTYYSDSVKGRFTISQDGSKNTLYLQLNSLKAEDTALYYCAAAYGGSRCVYNYRGQGTQVTVSSEPKSSDKTHTCPPCPAPEAAGGPSVFLFPPKPKDTLMISRTPEVTCVVVDVSHEDPEVKFNWYVDGVEVHNAKTKPREEQYNSTYRVVSVLTVLHQDWLNGKEYKCKVSNKALPAPIEKTISKAKGQPREPQVYTLPPSREEMTKNQVSLSCAVKGFYPSDIAVEWESNGQPENNYKTTPPVLDSDGSFFLVSKLTVDKSRWQQGNVFSCSVMHEALHNRFTQKSLSLSPGK
heavy: EVQLVESGGGLVQPGGSLRLSCAASGFTFSTYAMNWVRQAPGKGLEWVARIRSKYNNYATYYADSVKDRFTISRDDSKNTLYLQMNSLRAEDTAVYYCARHGNFGNSYVSWFAYWGQGTMVTVSSASTKGPSVFPLAPSSKSTSGGTAALGCLVKDYFPEPVTVSWNSGALTSGVHTFPAVLQSSGLYSLSSVVTVPSSSLGTQTYICNVNHKPSNTKVDKKVEPKSCDKTHTCPPCPAPEAAGGPSVFLFPPKPKDTLMISRTPEVTCVVVDVSHEDPEVKFNWYVDGVEVHNAKTKPREEQYNSTYRVVSVLTVLHQDWLNGKEYKCKVSNKALPAPIEKTISKAKGQPREPQVYTLPPSREEMTKNQVSLWCLVKGFYPSDIAVEWESNGQPENNYKTTPPVLDSDGSFFLYSKLTVDKSRWQQGNVFSCSVMHEALHNHYTQKSLSLSPGK
light: QAVVTQEPSLTVSPGGTVTLTCRSSTGAVTTSNYANWVQQKPGQAPRGLIGGTNKRAPGTPARFSGSLLGGKAALTLSGVQPEDEAEYYCALWYSNLWVFGGGTKLTVLGQPKAAPSVTLFPPSSEELQANKATLVCLISDFYPGAVTVAWKADSSPVKAGVETTTPSKQSNNKYAASSYLSLTPEQWKSHRSYSCQVTHEGSTVEKTVAPTECS
notes: Hole chain: 2A11-linker-2A11-Fc; knob chain: anti-CD3 Fab heavy chain-Fc; anti-CD3 light chain; also called format 11A incorporating 2A11
As for B1, in assay [1], the koff was determined as 0.00229 s⁻¹. Besides, the EC50 was found to be 0.4 nM in assay [2], 0.55 nM in assay [3], 0.45 nM in assay [4] and 0.19 nM in assay [6]. In addition, the Kd in assay [5] turned out to be 17 nM. Also, the on-rate (kon) in assay [5] stood at 135000 M⁻¹ s⁻¹.

B2: FUSE-597 (h5A1-HK2 Fc) (Fc fusion)
chain: EVQLLESGGGLVQPGGSLRLSCAASGYTNRLKCMGWFRQAPGKERELASISTGTGNTYYADSVKGRFTISRDGSKNTLYLQMNSLRAEDTAVYYCAADVRPDGTTCHYNSRGQGTLVTVSS
notes: VHH-Fc format; not shown: Fc of the VHH-Fc format
Consider B2, for which the MFI in assay [7] amounted to 10100.

B3: FUSE-598 (h5A1-HK6 Fc) (Fc fusion)
chain: EVQLLESGGGLVQPGGSLRLSCAASGYTNRLKCMGWFRQAPGKERELASISTGTGNTYYADSVKGRFTISQDGSKNTLYLQMNSLRAEDTAVYYCAADVRPDGTTCHYNSRGQGTLVTVSS
notes: as for B2
As for B3, the MFI in assay [7] is 9560.
